Experimental data as given in patent US20250223330A1 (OUTPACE BIO, published 2025).
Numbering of substitutions follows the chain as printed.

T1: IL2Rb/g-Fc (UniProt P14784 27-239; P31785 23-262, limits assumed)
T1 construct: Captured at 12 ug/mL on ProA tips; also called IL-2/15Rβγ; IL-2Rβγ; not shown: Fc part
T1 sequence (looked up) 1: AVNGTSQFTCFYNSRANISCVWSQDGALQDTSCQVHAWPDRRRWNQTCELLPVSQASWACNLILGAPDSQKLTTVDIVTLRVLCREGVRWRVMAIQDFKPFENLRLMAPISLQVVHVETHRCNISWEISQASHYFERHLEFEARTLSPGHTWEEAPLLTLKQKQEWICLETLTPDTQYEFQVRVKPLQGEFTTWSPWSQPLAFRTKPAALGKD
T1 sequence (looked up) 2: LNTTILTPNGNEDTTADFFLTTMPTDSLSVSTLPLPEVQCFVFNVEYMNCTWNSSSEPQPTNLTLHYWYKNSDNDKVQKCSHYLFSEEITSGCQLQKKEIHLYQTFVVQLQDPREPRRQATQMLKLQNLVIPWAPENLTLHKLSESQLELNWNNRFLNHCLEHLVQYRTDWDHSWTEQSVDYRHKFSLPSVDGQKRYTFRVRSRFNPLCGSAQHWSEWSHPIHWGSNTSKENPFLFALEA

T2: CD25-Fc (UniProt P01589 22-213, limits assumed)
T2 construct: Bought reagent; The same stock (100 ug/mL aliquots) was used as CD25-Fc in the ELISA and as IL2Ra-Fc on ProA tips in the Octet assay; also called IL2Ra-Fc; CD25 (IL2Ra); not shown: Fc part of the bought fusion
T2 sequence (looked up): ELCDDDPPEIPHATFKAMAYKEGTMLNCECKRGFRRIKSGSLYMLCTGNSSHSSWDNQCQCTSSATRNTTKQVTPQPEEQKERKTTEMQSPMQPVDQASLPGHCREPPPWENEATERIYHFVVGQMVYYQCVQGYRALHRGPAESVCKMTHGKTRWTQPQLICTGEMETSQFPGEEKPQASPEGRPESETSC

B1: Designed Cytokine No. 169 (designed binder)
chain: APTSSSTKKTQLQLEHLLLDLQMILNGINNMNADPELVEFLNRWITFCQSIISTGSLEDLKHLQALEEELKPLEEVLNLAQSKNFHLRPRDLISNINVIVLELKGSGSGNWSHPQFEK
notes: also called Design 1
B2: Designed Cytokine No. 153 (designed binder)
chain: APTSSSTKKTQLQLEHLLLDLQMILNGINNMNADPELVEFLNRWITFCQSIISTGSVDPEELAKELQKLEEELKPLEEVLNLAQSKNFHLRPRDLISNINVIVLELKGSGSGNWSHPQFEK
notes: also called Design 3
B3: SEQ ID NO 17 (designed binder)
chain: APTSSSTKKTQLQLEHLLLDLQMILNGMNNGNADPELVEFLNRWITFAQDGSADLKHLQALEEELKPLEEVLNLAQSKNFHLRPRDLISNINVIVLELKGS
notes: ELISA captured STII-tagged protein from supernatant; also called Designed Cytokine No. 17
B4: SEQ ID NO 18 (designed binder)
chain: B3 chain with M28I, G31M
notes: ELISA captured STII-tagged protein from supernatant; also called Designed Cytokine No. 18
B5: SEQ ID NO 19 (designed binder)
chain: APTSSSTKKTQLQLEHLLLDLQMIANALNKLGIESPFLNRWITFCQSNHEDAAKHLQALEEELKPLEEVLNLAQSKNFHLRPRDLISNINVIVLELMGS
notes: ELISA captured STII-tagged protein from supernatant; also called Designed Cytokine No. 19
B6: SEQ ID NO 20 (designed binder)
chain: APTSSSTKKTQLQLEHLLLDLQMIANALNKLGIESPFLNRWITFCQSVISASDDTREELKHLQALEEELKPLEEVLNLAQSKNFHLRPRDLISNINVIVLELKGS
notes: ELISA captured STII-tagged protein from supernatant; also called Designed Cytokine No. 20
B7: SEQ ID NO 21 (designed binder)
chain: APTSSSTKKTQLQLEHLLLDLQMILNALKKLNINSPMQEFLNRWITFCESNTEDALKHLQALEEELKPLEEVLNLAQSKNFHLRPRDLISNINVIVLELKGS
notes: ELISA captured STII-tagged protein from supernatant; also called Designed Cytokine No. 21
B8: SEQ ID NO 30 (designed binder)
chain: B7 chain with E65R, L75R
notes: ELISA captured STII-tagged protein from supernatant; also called Designed Cytokine No. 30
B9: SEQ ID NO 22 (designed binder)
chain: APTSSSTKKTQLQLEHLLLDLQMILNLAEVDPTMKEFLNRWITFCESNSESALKHLQALEEELKPLEEVLNLAQSKNFHLRPRDLISNINVIVLELKGS
notes: ELISA captured STII-tagged protein from supernatant; also called Designed Cytokine No. 22
B10: SEQ ID NO 26 (designed binder)
chain: APTSSSTKKTQLQLEHLLLDLQMILNFPVDSEMVEFLNRWITFAEKGTEDALKELQALEEELKPLEEVLNLAQSKNFHLRPRDLISNINVIVLELKGS
notes: ELISA captured STII-tagged protein from supernatant; also called Designed Cytokine No. 26
B11: SEQ ID NO 23 (designed binder)
chain: B10 chain with E45Q, T48D, D50S, E54H
notes: ELISA captured STII-tagged protein from supernatant; also called Designed Cytokine No. 23
B12: SEQ ID NO 25 (designed binder)
chain: B10 chain with L52N
notes: ELISA captured STII-tagged protein from supernatant; also called Designed Cytokine No. 25
B13: SEQ ID NO 31 (designed binder)
chain: B10 chain with E61R, L71R
notes: ELISA captured STII-tagged protein from supernatant; also called Designed Cytokine No. 31
B14: SEQ ID NO 24 (designed binder)
chain: APTSSSTKKTQLQLEHLELDLQMILNLAEVDPTMKEFLNRWITEAQSSNATLKSLQALEEELKPLEEVLNLAQSKNFHLRPRDLISNINVIVLELKGS
notes: ELISA captured STII-tagged protein from supernatant; also called Designed Cytokine No. 24
B15: SEQ ID NO 27 (designed binder)
chain: APTSSSTKKTQLQLEHLLLDLQMILNGINNMNADPELVEFLNRWITFCQSLIKKGSNEDLKHLQALEERLKPLEEVLNRAQSKNFHLRPRDLISNINVIVLELKGS
notes: ELISA captured STII-tagged protein from supernatant; also called Designed Cytokine No. 27
B16: SEQ ID NO 28 (designed binder)
chain: APTSSSTKKTQLQLEHLLLDLQMILNGAEVDPKIKEFLNRWITFCQSVIKANKDTREELKHLQALEERLKPLEEVLNRAQSKNFHLRPRDLISNINVIVLELKGS
notes: ELISA captured STII-tagged protein from supernatant; also called Designed Cytokine No. 28
B17: SEQ ID NO 29 (designed binder)
chain: APTSSSTKKTQLQLEHLLLDLQMILNALNKLNINDHIVEFLNRWITFCQSATSDPDLLKHLQALEERLKPLEEVLNRAQSKNFHLRPRDLISNINVIVLELKGS
notes: ELISA captured STII-tagged protein from supernatant; also called Designed Cytokine No. 29
B18: SEQ ID NO 32 (designed binder)
chain: APTSSSTKKTQLQLEHLLLDLQMILNGINNYKNPKLTRMLTFGGTATIVEFLNRWITACQREADPEALQALEEELKPLEEVLNLAQSKNFHLRPRDLISNINVIVLELMGS
notes: ELISA captured STII-tagged protein from supernatant; also called Designed Cytokine No. 32
B19: SEQ ID NO 33 (designed binder)
chain: APTSSSTKKTQLQAEHLLLDLQMILNGINNYKNPKLTRMLTFGGTATIVEFLNRWITFCESGADEEAAKSLQALEEELKPLEEVLNLAQSKNFHLRPRDLISNINVIVLELKGS
notes: ELISA captured STII-tagged protein from supernatant; also called Designed Cytokine No. 33
B20: SEQ ID NO 34 (designed binder)
chain: APTSSSTKKTQLQLEHLLLDLQMILNGINNYKNPKLTEIDPKLVEFLNRWITFCQSAIKSGSNTAKELQALEEELKPLEEVLNLAQSKNFHLRPRDLISNINVIVLELAGS
notes: ELISA captured STII-tagged protein from supernatant; also called Designed Cytokine No. 34
B21: SEQ ID NO 35 (designed binder)
chain: APTSSSTKKTQLQLEHLLLDLQMILNGINNYKNPKLTEIDPKLVEFLNRWITFCQTIINGGESATLKHLQALEEELKPLEEVLNLAQSKNFHLRPRDLISNINVIVLELKGS
notes: ELISA captured STII-tagged protein from supernatant; also called Designed Cytokine No. 35
B22: SEQ ID NO 36 (designed binder)
chain: B21 chain with T56S, G61D, A64F, T65S
notes: ELISA captured STII-tagged protein from supernatant; also called Designed Cytokine No. 36
B23: SEQ ID NO 37 (designed binder)
chain: APTSSSTKKTQLQLEHLLLDLQMILNGINNYKNPKLTKLDPSLVEFLNRWITFCQSATSDPDLLKHLQALEEELKPLEEVLNLAQSKNFHLRPRDLISNINVIVLELKGS
notes: ELISA captured STII-tagged protein from supernatant; also called Designed Cytokine No. 37
B24: SEQ ID NO 38 (designed binder)
chain: APTSSSTKKTQLQLEHLLLDLQMILNGINNMNADPELVEFLNRWITFCQTAISTGKDNLKHLQALEEELKPLEEVLNLAQSKNFHLRPRDLISNINVIVLELKGS
notes: ELISA captured STII-tagged protein from supernatant; also called Designed Cytokine No. 38
B25: Designed Cytokine No. 39 (designed binder)
chain: APTSSSTKKTQLQLEHLLLDLQMILNGINNMNADPELVEFLNRWITFCQSLIKKGSNEDLKHLQALEEELKPLEEVLNLAQSKNFHLRPRDLISNINVIVLELKGSGSGGSGNWSHPQFEK
B26: Designed Cytokine No. 40 (designed binder)
chain: B25 chain with M31G

Experiments:
CD25-Fc [1] = target: CD25-Fc (UniProt P01589); experiment: BLI; conditions: ligand
IL2Rb/g-Fc = target: T1, IL2Rb/g-Fc; experiment: Octet (BLI), IL2Rb/g-Fc captured on ProA tips, cytokine in solution
CD25-Fc [2] = target: T2, CD25-Fc; experiment: ELISA, STII-tagged cytokine captured on Strep-Tactin plate, CD25-Fc detected (FIG. 5A)
CD25-Fc [3] = target: T2, CD25-Fc; experiment: ELISA, STII-tagged cytokine captured on Strep-Tactin plate, CD25-Fc detected

Molecule | binding result (CD25-Fc [2]) | other results
WT IL-2 (from UniProt P60568 21-153) |  | Kd (CD25-Fc [1]): 20 nM
B1 |  | Kd (IL2Rb/g-Fc): ~1.6 nM
B2 |  | Kd (IL2Rb/g-Fc): 3.9 nM
B3 | no binding | 
B4 | no binding | 
B5 | no binding | 
B6 | no binding | 
B7 | no binding | 
B8 | no binding | 
B9 | no binding | 
B10 | no binding | 
B11 | no binding | 
B12 | no binding | 
B13 | no binding | 
B14 | no binding | 
B15 | no binding | 
B16 | no binding | 
B17 | no binding | 
B18 | no binding | 
B19 | no binding | 
B20 | no binding | 
B21 | no binding | 
B22 | no binding | 
B23 | no binding | 
B24 | no binding | 
B25 |  | binding result (CD25-Fc [3]): no binding
B26 |  | binding result (CD25-Fc [3]): no binding
